The experiment concerns the target Tat-PYC-Smad7 (recombinant Tat-tagged protein containing amino acids 203-426 of human Smad7) (human) (UniProt O15105). Description: sandwich ELISA: rabbit anti-Smad7 (Novus NBP1-87728) as capture, MAB2029 as detection, Tat-PYC-Smad7 spiked into dog serum, OD 450. Background: ELISA stands for enzyme-linked immunosorbent assay.
Chain of UniProt O15105 (O15105 other isoform, or with tags, fused parts or gaps limits assumed): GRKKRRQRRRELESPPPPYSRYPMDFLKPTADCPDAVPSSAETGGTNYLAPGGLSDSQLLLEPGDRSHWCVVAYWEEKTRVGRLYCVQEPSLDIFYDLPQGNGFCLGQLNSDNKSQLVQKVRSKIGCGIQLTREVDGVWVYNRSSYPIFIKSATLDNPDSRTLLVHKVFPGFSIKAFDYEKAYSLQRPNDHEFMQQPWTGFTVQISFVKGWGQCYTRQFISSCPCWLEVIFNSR

With “Mouse monoclonal antibody (R&D #MAB2029) that recognized the c-terminus of human SMAD7”, the lowest concentration detected amounted to 0.16 ng/mL.

For the origin of these results see patent US20240245751A1.
